For two molecules, fold increase of band intensity over the GST control results are on record in paper PMC3020915.

Values joined by “and” are separate entries in the source; they are usually repeats but may differ in a detail not shown here. Equal entries are not always repeated.

The assay deals with GST-Rif Q75L (UniProt Q9HBH0). The assay is described as follows: pull-down.

B1: MBP-Nt (mDia2 N-terminus, 1-528) (domain or fragment)
chain: MERHRARALGRDSKSSRRKGLQSAPPAGPYEPGEKRPKLHLNIRTLTDDMLDKFASIRIPGSKKERPPLPHLKTVSGISDSSSLSSETMENNPKALPESEVLKLFEKMMEDMNLNEDKKAPLREKDFGIKKEMVMQYINTASKTGSLRSSRQISPQEFLHELKMGYTDERLFTYLESLRVSLTSHPVSWVQSFGHEGLGLLLDILEKLINGQIQEKVVKKTQHKVIQCLRALMNTQYGLERIMSDKRSLSLLAKAMDPRQPAMMADVVKLLSAVCIVGEESILEEVLEALTSAGEERKIDRFFSIVEGLRHNSVNLQVACMQLINALVTSPDDLDFRLHLRNEFMRCGLKEILPNLKGIKNDGLDIQLKVFDEHKEEDLSEFFHRLEDIRAELDEASDVYSMLWDTVKETRAEGHFLSILQHLLLIRNDRFIREQYFKLIDECVSQIVLHRDGTDPDFTYRKRLDLDLSQFVDVCIDQAKLDEWEEKASEHCKKFEKECTDHQETQAQLQKREAKINELQAELQAFKS
B1: the fold increase of band intensity over the GST control is 2.4 fold and 3.8 fold.

B2: MBP-NtΔBD (mDia2 91-528) (domain or fragment)
chain: NNPKALPESEVLKLFEKMMEDMNLNEDKKAPLREKDFGIKKEMVMQYINTASKTGSLRSSRQISPQEFLHELKMGYTDERLFTYLESLRVSLTSHPVSWVQSFGHEGLGLLLDILEKLINGQIQEKVVKKTQHKVIQCLRALMNTQYGLERIMSDKRSLSLLAKAMDPRQPAMMADVVKLLSAVCIVGEESILEEVLEALTSAGEERKIDRFFSIVEGLRHNSVNLQVACMQLINALVTSPDDLDFRLHLRNEFMRCGLKEILPNLKGIKNDGLDIQLKVFDEHKEEDLSEFFHRLEDIRAELDEASDVYSMLWDTVKETRAEGHFLSILQHLLLIRNDRFIREQYFKLIDECVSQIVLHRDGTDPDFTYRKRLDLDLSQFVDVCIDQAKLDEWEEKASEHCKKFEKECTDHQETQAQLQKREAKINELQAELQAFKS
Consider B2, for which the fold increase of band intensity over the GST control was 6 fold and 9.2 fold.
